One molecule from patent CN113754775A (SUNSHINE GUOJIAN PHARMACEUTICAL SHANGHAI CO LTD, dated 2021) can be followed below.

The experiment addresses T1, PDL1-ECD-his (human, UniProt Q9NZQ7 19-238).
T1 construct: extracellular domain; Made in HEK-293F
Put plainly: ELISA, PDL1-ECD-his coated, anti-human IgG Fc-HRP. In general terms: An ELISA detects its analyte on a solid surface through an enzyme-linked reagent.

T1 sequence (Q9NZQ7 other isoform, or with tags, fused parts or gaps): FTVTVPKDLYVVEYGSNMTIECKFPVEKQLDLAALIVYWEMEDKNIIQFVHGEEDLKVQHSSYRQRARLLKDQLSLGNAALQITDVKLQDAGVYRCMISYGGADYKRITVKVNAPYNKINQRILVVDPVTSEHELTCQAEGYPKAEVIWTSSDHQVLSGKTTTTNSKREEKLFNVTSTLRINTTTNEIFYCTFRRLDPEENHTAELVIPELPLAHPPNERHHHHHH

B1: 抗人PD-L1抗体M8 (antibody, V domains shown)
VH: QVQLQQSGGGLVKPSQSLSLTCTVSGFSLTSYGVHWVRQPPGKGLEWIGLIWSGGGTDYNPSLKSRLTISRDTSKNQVSFKISSLTAADTAVYYCARQLGLRAMDYWGQGTSVTVSS
VL: EIVLTQSPDFLSVTPKEKVTITCRASQSIGTTIHWYQQKPDQSPKLLIKYASQSFSGVPSRFSGSGSGTDFTLTINSVEAEDAATYYCQQSNSWPLTFGAGTKLEIK
notes: Whole monoclonal antibody with two heavy and two light chains, made in HEK293F; also called anti-human PD-L1 antibody M8
In the case of B1, the binding result was “binds”.
